B1: LcrG, full length (natural protein)
chain: MKSSHFDEYDKTLKQAELAIADSDHRAKLLQEMCADIGLTPEAVMKIFAGRSAEEIKPAERELLDEIKRQRERQPQHPYDGKRPRKPTMMRGQII
B2: LcrV with a deletion of the N-terminal domain (domain or fragment)
chain: SKLREELAELTAELKIYSVIQAEINKHLSSGGTINIHDKSINLMDKNLYGYTDEEIFKASAEYKILEKMPQTTIQEGETEKKIVSIKNFLESEKKRTGALGNLKDSYSYNKDNNELSHFATTCSDKSRPLNDLVSQKTTQLSDITSRFNSAIEALNRFIQKYDSVMQRLLDDTSGK

Key:
LcrV, full length = LcrV, full length (Yersinia pseudotuberculosis, UniProt P23994 1-326); test: ITC; conditions: both partners purified
[1] = target: LcrV with a deletion of the N-terminal 23 residues (Yersinia pseudotuberculosis, UniProt P23994 24-326); test: ITC; […] ([…]) […] ([…]) […]; 25°C; 30 mM phosphate buffer, 50 mM NaCl, 1 mM TCEP, pH 7.0; conditions: both partners purified
[2] = target: B2; test: as above; conditions: both partners purified
[3] = target: the molecule itself; test: […]; 50 mM NaCl, 30 mM phosphate buffer, 1 mM TCEP

For B1, the Kd (LcrV, full length) was 0.127 ± 0.063 µM, the Kd [1] was 0.054 ± 0.0088 µM and the Kd [2] was no more than 0.01 µM.

In the case of B2, the “stoichiometry N” value [3] is reported as 3.

From publication PMC12720783 (Protein Science : A Publication of the Protein Society, 2025)
